Data: article doi:10.1101/2020.11.13.381350 (bioRxiv, 2020)
Several values for one entry are separate records, joined by “and”; a condition that tells them apart may be missing. Equal values may be shown once.

Biological target: the molecule itself
Test: cross-linking

B1: 6xHis-WT-mVP40 (Marburg virus matrix protein VP40, wild type) (natural protein)
chain: MASSSNYNTYMQYLNPPPYADHGANQLIPADQLSNQQGITPNYVGDLNLDDQFKGNVCHAFTLEAIIDISAYNERTVKGVPAWLPLGIMSNFEYPLAHTVAALLTGSYTITQFTHNGQKFVRVNRLGTGIPAHPLRMLREGNQAFIQNMVIPRNFSTNQFTYNLTNLVLSVQKLPDDAWRPSKDKLIGNTMHPAVSIHPNLPPIVLPTVKKQAYRQHKNPNNGPLLAISGILHQLRVEKVPEKTSLFRISLPADMFSVKEGMMKKRGENSPVVYFQAPENFPLNGFNNRQVVLAYANPTLSAV
stoichiometry N: 6 and 4
